Assay [1] concerns the target T1, human α-thrombin (Haematologic Technologies) (human), P00734. Description: thrombin inhibition; sulfated at Y32. Particulars: chains peptide; modification not given.
The target of assay [2] is T1, human α-thrombin (Haematologic …). Briefly: inhibition of amidolytic activity of human α-thrombin (0.2 nM enzyme, chromogenic substrate Tos-Gly-Pro-Arg-pNA), tight-binding Morrison fit.
Assay [3] has the same target. Description: thrombin inhibition; unsulfated. As to conditions: chains peptide; modification not given.
Assay [4] has the same target. Briefly: thrombin inhibition; sulfated at Y35. Particulars: chains peptide; modification not given.
The target is the same in assay [5]. Description: inhibition of amidolytic activity of human α-thrombin; reference is unsulfated SEQ ID No:1.
Assay [6] shares this target. Briefly: thrombin inhibition; sulfated at Y32 and Y35. Particulars: chains peptide; modification not given.
Assay [7] has the same target. Description: thrombin inhibition; sulfated at Y33. Particulars: chains peptide; modification not given.
For assay [8] the target is unchanged. Briefly: inhibition of amidolytic activity of human α-thrombin; reference is unsulfated SEQ ID No:2.
Assay [9] shares this target. Description: thrombin inhibition; sulfated at Y33 and Y36. As to conditions: chains peptide; modification not given.
Assay [10] shares this target. Briefly: thrombin inhibition; sulfated at Y36. Particulars: chains peptide; modification not given.
Assay [11] shares this target. Description: thrombin inhibition; unsulfated; unit from column head of Figure 1 table. As to conditions: chains peptide; modification not given.

B1: SEQ ID No:1 (MDL-2) Y32 (sulfated at Y32) (peptide)
chain: YPESDSAKDDGNQEKEKALLVKVQERSDDGDYDEYDNDETTHTPDPSAPTARPRIREHQA
In the case of B1, the values for the inhibition constant Ki in [1] and in [2] were 1.99 nM and less than 3 nM, respectively.

B2: SEQ ID No:1 (MDL-2) Un (unsulfated) (protein)
chain: YPESDSAKDDGNQEKEKALLVKVQERSDDGDYDEYDNDETTHTPDPSAPTARPRIREHQA
B2 came in with a Ki in assay [3] of 27.2 nM.

B3: SEQ ID No:1 (MDL-2) Y35 (sulfated at Y35) (peptide)
peptide: YPESDSAKDDGNQEKEKALLVKVQERSDDGDYDEYDNDETTHTPDPSAPTARPRIREHQA
modifications: not checked
Consider B3, for which the figures for the Ki in assay [2] and in assay [4] were less than 3 nM and 2.77 nM, respectively.

B4: SEQ ID No:1 (MDL-2) DS (sulfated at Y32 and Y35) (peptide)
peptide: YPESDSAKDDGNQEKEKALLVKVQERSDDGDYDEYDNDETTHTPDPSAPTARPRIREHQA
modifications: not checked
B4 yielded a fold more potent than the unsulfated counterpart in assay [5] of more than 100 fold. The Ki in assay [6] is 0.156 nM; in assay [2], less than 3 nM.

B5: SEQ ID No:2 (MDL-1) Y33 (sulfated at Y33) (peptide)
chain: YPERDSAKDGNEEQERALPVNVQERGEVADADYDDYDEEGTTPTVDPTAQTARPRLQGNQS
On to B5, for which the inhibitory constant (Ki) in [7] was 3.59 nM; in assay [2] it was less than 20 nM.

B6: SEQ ID No:2 (MDL-1) DS (sulfated at Y33 and Y36) (peptide)
peptide: YPERDSAKDGNEEQERALPVNVQERGEVADADYDDYDEEGTTPTVDPTAQTARPRLQGNQS
modifications: not checked
In assay [8], B6 had a fold more potent than the unsulfated counterpart of 10 fold. The Ki in assay [2] is less than 20 nM; in assay [9] it was 2.06 nM.

B7: SEQ ID No:2 (MDL-1) Y36 (sulfated at Y36) (peptide)
chain: YPERDSAKDGNEEQERALPVNVQERGEVADADYDDYDEEGTTPTVDPTAQTARPRLQGNQS
On to B7, for which the Ki was 17.6 nM in [10] and less than 20 nM in [2].

B8: SEQ ID No:2 (MDL-1) Un (unsulfated) (protein)
chain: YPERDSAKDGNEEQERALPVNVQERGEVADADYDDYDEEGTTPTVDPTAQTARPRLQGNQS
As for B8, the Ki in assay [11] is 73.8 nM.

Values taken from US20230416341A1, “IMPROVED THROMBIN INHIBITORS FOR TREATMENT OF THROMBOEMBOLIC CONDITIONS” (priority 2020, published 2023).
